The results in this text go back to patent US20230212266A1 (FRED HUTCHINSON CANCER CENTER, published 2023).

What all share (experiment): BLI, mAb on anti-human Fc probe, antigen in solution
In general terms: BLI is a label-free optical method that tracks binding on a fibre tip over time.

Assay [1] addresses T1, SARS-CoV-2 receptor binding domain (RBD) (SARS-CoV-2, UniProt P0DTC2 319-591).
For assay [2], the target named is T1, SARS-CoV-2 receptor binding domain (RBD). This is another data set of the same source.
Assay [3] has the same target. This is another data set of the same source.
Assay [4] has the same target. This is another data set of the same source.
Assay [5] has the same target. The source holds these as a separate data set.
For assay [6] the target is unchanged. The source holds these as a separate data set.
Assay [7] shares this target. The source holds these as a separate data set.
Assay [8] has the same target. The source holds these as a separate data set.
Assay [9] shares this target. The source holds these as a separate data set.
The target is the same in assay [10]. The source holds these as a separate data set.
The target is the same in assay [11]. This is another data set of the same source.
Assay [12] shares this target. This is another data set of the same source.
The target is the same in assay [13]. This is another data set of the same source.
For assay [14] the target is unchanged. This is another data set of the same source.
For assay [15] the target is unchanged. This is another data set of the same source.
Assay [16] has the same target. The source holds these as a separate data set.

Positions count from the first letter of the chain named. Where two headings read alike, the source gives them in different places.

B1: CV2-9 (antibody, V domains shown)
VH: EVQLVESGGGLIQPGGSLRLSCAASGFTVSSNYMTWVRQAPGKGLEWVSIIYSGGSTYYADSVKGRFTISRDNSKNTLYLQMNSLRAEDTAVYYCAAGYYDSINWGQGTLVTVPS
VL: DIQMTQSPSTLSASVGDRVTITCRASQSISTWLAWYQQKPGKAPKLLIYKASNLESGVPSRFSGSGSGTEFTLTISSLQPDDFATYYCQQYYTYSWTFGQGTKLEIKR
notes: expressed as IgG
Consider B1, for which the binding result in assay [1] was “no binding”.

B2: CV2-10 (antibody, V domains shown)
VH: QVQLQESGPGLVKPSGTLSLTCAVSGGSISSSTWWSWVRQPPGKGLEWIGEIYHSGSTNYNPSLKSRVTISVDKSKNQFSLKLSSVTAADTAVYYCARSASNYFGYYYYGMDVWGQGTTVTVSS
VL: EIVLTQSPATLSLSPGERATLSCRASQSVSSQLAWYQQKPGQAPRLLISDASNRATGIPARFSGSGSGTDFTLTISSLEPEDFAVYYCQQRSNWPRTFGQGTKVEIK
notes: expressed as IgG
In the case of B2, the binding result in assay [2] is “no binding”.

B3: CV2-14 (antibody, V domains shown)
VH: QVQLVESGGGVVQPGRSLRLSCAASGFTFSSFALHWVRQAPGKGLEWVAVVSYDGSNKYYADSVKGRFTISRDNSKNTLYLQMNSLRAEDTAAYYCARSMGGNYADYFDYWGQGTLVTVSS
VL: B2 VL with S30T, S31N, Q32Y, S49Y, R96N, K103R, V104L
notes: expressed as IgG
On to B3, for which, in assay [3], the binding result is “no binding”.

B4: CV2-6 (antibody, V domains shown)
VH: QVQLVESGGGVVQPGRSLRLSCAASGFTFSIYAIHWVRQAPGKGLEWVAVISYDGINKYYADAVKGRFTISRDNSKNTLFLQMNSLRTEDTAVYYCARAMGGNYFHAFDIWGQGTMVTVSS
VL: EIVLTQSPGTLSLSPGERATLSCRASQSVSSSYLAWYQRKPGQAPRLLIYGASNRATGIPDRFSGSGSGTDFTLTISRLEPEDFAVFYCQQYGSSPWTFGQGTKVEIK
notes: expressed as IgG
In the case of B4, in assay [4], the binding result is on record as “no binding”.

B5: CV2-13 (antibody, V domains shown)
VH: EVQLVESGGGLVQPGGSLRLSCAASGFTFSSYEMNWVRQAPGKGLEWVSYISSSGSTIYYADSVKGRFTISRDNAKNSLYLEMNSLRAEDTAVYYCASTSDSGSYYIHWYFDLWGRGTLVTVSS
VL: QSALTQPASVSGSPGQSITISCTGTSSDVGSYNLVSWYQQHPGKAPKLMIYDVSKRPSGVSNRFSGSKSGNTASLTISGLQAEDEADYYCCSHAGSSTSYIFGTGTKVTVL
notes: expressed as IgG
Regarding B5, the binding result in assay [5] is given as “no binding”.

B6: CV2-17 (antibody, V domains shown)
VH: EVQLVESGGGLVQPGGSLRLSCSASGFTFSSYAMHWVRQAPGKGLEYVSTISTNGGSTYYADSVKGRFTISRDNSKNTLYLQMSSLRAEDTAVYYCVLGYCSSTSCQHFDYWGQGTLVTVSS
VL: B5 VL with S31A, L34Y, D52E, K55N, C91S, H93Y, A94T, G95S, S99P, I101V
notes: expressed as IgG
For B6, in assay [6], the binding result is on record as “no binding”.

B7: CV2-18 (antibody, V domains shown)
VH: QVQLVQSGAEVKKPGSSVKVSCKASGGTFSSYAISWVRQAPGQGLEWMGGIIPIFGTANYAQKFQGRVTITADESTSTAYMELSSLRSEDTAVYYCARVGAYDSSGYYQDLWGRGTLVTVSS
VL: EIVLTQSPATLSLSPGERATLSCRASQSVSSYLAWYQQKPGQAPRLLIYDASNRATGIPARFSGSGSGTDFTLTISSLEPEDFAVYYCQQRSNWPPVITFGQGTRLEIK
notes: expressed as IgG
Turning to B7, the binding result in [7] is on record as “no binding”.

B8: CV2-16 (antibody, V domains shown)
VH: QVQLVQSGAEVKKPGSSVKVSCKASGGTFSSFAFIWVRQAPGQGLEWMGGIIPIFGTAKYTQKFQGRVTITADESTSTAYMELSSLRSEDTAVYYCARVSYYDSSGFYTDYWGQGTLVTVSS
VL: B7 VL with E1D, L4M, Y32F, V97E, I98Y, R105K
notes: expressed as IgG
For B8, in [8], the binding result is reported as “no binding”.

B9: CV2-15 (antibody, V domains shown)
VH: QVQLVQSGAEVKKPGSSVKVSCKTSGGIFSSYAISWVRQAPGQGLEWMGGIIPIFGTANYAQKFQGRVTITADESTSTAYMELSSLRSEDTAVYYCASYSGFDDYGHYRNYWGQGTLVTVSS
VL: B7 VL with E1D, L4M, S7T, S31R, S92Y, V97E, I98L, Q102G, R105K, L106V
notes: expressed as IgG
For B9, in [9], the binding result is given as “no binding”.

B10: CV2-5 (antibody, V domains shown)
VH: QVQLVQSGAEVKKPGSSVKVSCKASGGTFSSYAISWVRQAPGQGLEWMGGIIPIFGTTNNAQKFQGRVTLTADESTSAAYMELSSLRSEDTAVYYCARIEPYASTGYTFDYWGQGTLVTVSS
VL: B7 VL with Y32F, V97R
notes: expressed as IgG
Regarding B10, the binding result in assay [10] is reported as “no binding”.

B11: CV2-11 (antibody, V domains shown)
VH: EVQLVESGGGLVKPGGSLRLSCAASGFTFSSYSMNWVRQAPGKGLEWVSSISSSRSYIYYADSVKGRFTISRDNAKNSLYLQMNSLRAEDTAVYYCASNPAADPNTYYYYGMDVWGQGTTVTVSS
VL: QPVLTQPPSASASLGASVTLTCTLSSGYSNYKVDWYQQRPGKGPRFVMRVGTGGIVGSKGDGIPDRFSVLGSGLNRYLTIKNIQEEDESDYHCGADHGSGSNFVGVFGGGTKLTVL
notes: expressed as IgG
Regarding B11, the binding result in assay [11] is “no binding”.

B12: CV8 (antibody, V domains shown)
VH: QVQLVQSGAEVKKPGASVKVSCKASGYTFTSYGISWVRQAPGQGLEWMGWISAYNGNTNYAQKLQGRVTMTTDTSTSTAYMELRSLRSDDTAVYYCARLVPTWASYYDFWSGYPGGYGMDVWGQGTTVTVSS
VL: not shown
notes: expressed as IgG
Consider B12, for which, in assay [12], the binding result is “no binding”.

B13: CV2-21 (antibody, V domains shown)
VH: QVQLVQSGAEVKKPGASVKVSCKAFGYTFTKNGINWVRQAPGQGLEWMGWISPNNGYTNFAQKFQGRATMTSDTSTSTAYMELRSLRSDDTAVYYCARVRVDYDSSGYDAYYYHLDVWGQGTTVTVSS
VL: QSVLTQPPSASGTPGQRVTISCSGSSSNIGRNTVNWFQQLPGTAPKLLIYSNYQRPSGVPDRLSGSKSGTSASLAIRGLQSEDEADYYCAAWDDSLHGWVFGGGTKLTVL
notes: expressed as IgG
As for B13, the binding result in [13] is “no binding”.

B14: CV2-12 (antibody, V domains shown)
VH: QVQLVESGGGVVQPGRSLRLSCAASGFTFSSYGIHWVRQAPGKGLEWVAVISYDGINKYYADSVKGRFTISRDNSKNTLYLHMNSLRAEDTAVYYCARPNSGSYHSYFDYWGQGTLVTVSS
VL: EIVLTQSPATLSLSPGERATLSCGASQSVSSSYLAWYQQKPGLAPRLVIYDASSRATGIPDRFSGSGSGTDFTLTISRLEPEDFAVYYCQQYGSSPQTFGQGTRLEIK
notes: expressed as IgG
For the molecule B14, the binding result in [14] is reported as “no binding”.

B15: CV2-19 (antibody, V domains shown)
VH: B14 VH with G33A, I34M, V50I, H82Q, A88V, N100G, S101G, H105Y, S106G, Y107P
VL: B5 VL with L34Y, D52E, K55N, I77L, C91S, H93Y, A94T, G95S, S99L, I101V
notes: expressed as IgG
Regarding B15, the binding result in assay [15] is reported as “no binding”.

B16: CV2-8 (antibody, V domains shown)
VH: QVQLVESGGGVVQPGRSLRLSCGASGFIFSSYAMHWVRQAPGKGLEWVAVISYDGNNKYYADSVKGRFTISRDNSKNTLYLQMNSLRAEDTAVYYCARPYSGTYFSAFDIWGQGTMVTVSS
VL: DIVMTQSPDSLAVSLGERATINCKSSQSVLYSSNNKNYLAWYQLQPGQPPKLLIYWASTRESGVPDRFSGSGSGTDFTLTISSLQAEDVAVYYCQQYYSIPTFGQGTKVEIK
notes: expressed as IgG
With B16, in assay [16], the binding result is “no binding”.
